Test results taken from paper PMC6783512, “Dimethylaminomicheliolide (DMAMCL) Suppresses the Proliferation of Glioblastoma Cells via Targeting Pyruvate Kinase 2 (PKM2) and Rewiring Aerobic Glycolysis” (Frontiers in Oncology, 2019).

Biological target: the molecule itself
Assay: SEC + AUC; 2 mL of 3 mg/mL purified PKM2 on Superdex 200 pg 16/600, 1 mL/min, UV 280 nm; peaks identified by analytical ultracentrifuge (results: sucrose gradient ultracentrifugation); monomer and tetramer fractions isolated

B1: recombinant PKM2 C424S (enzyme)
chain: not shown
notes: Pyruvate kinase M2 (PKM2) with C424S; likely made in E. coli like the wild type; also called rPKM2 protein with C424 mutation; source: purified (plasmid pET28a-PKM2 C424S)
- stoichiometry N: 4
